Experimental data published in patent publication US20060058231A1 (Xencor, published 2006).
Positions count from the first letter of the chain named. Names may count otherwise.

T1: BMPRIb receptor-Fc fusion (UniProt O00238 14-126)
T1 construct: BMP receptor-Fc fusion used at 5 ug/mL; also called ALK-6
T1 sequence (looked up): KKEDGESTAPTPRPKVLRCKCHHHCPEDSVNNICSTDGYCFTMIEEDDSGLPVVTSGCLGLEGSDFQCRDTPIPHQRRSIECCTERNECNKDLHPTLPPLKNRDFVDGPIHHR

T2: BMPRII receptor-Fc fusion (UniProt Q13873 27-151, limits assumed)
T2 construct: BMP receptor-Fc fusion used at 5 ug/mL
T2 sequence (looked up): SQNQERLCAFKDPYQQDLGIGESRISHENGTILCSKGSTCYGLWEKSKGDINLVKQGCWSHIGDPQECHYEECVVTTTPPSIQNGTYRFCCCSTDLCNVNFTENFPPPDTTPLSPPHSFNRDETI

T3: BMPRIb receptor-Fc fusion (UniProt O00238 14-126)
T3 construct: BMP receptor-Fc fusion, detected with anti-human IgG-HRP; also called ALK-6
T3 sequence (looked up): T1 sequence (looked up)

T4: BMPRII receptor-Fc fusion (UniProt Q13873 27-151, limits assumed)
T4 construct: BMP receptor-Fc fusion, detected with anti-human IgG-HRP
T4 sequence (looked up): T2 sequence (looked up)

B1: BMP-7 variant R129D (ligand)
chain: STGGKQRSQNRSKTPKNQEALRMASVAENSSSDQRQACKKHELYVSFRDLGWQDWIIAPEGYAAYYCEGECAFPLNSYMNATNHAIVQTLVHFINPETVPKPCCAPTQLNAISVLYFDDSSNVILKKYDNMVVRACGCH
notes: In conditioned media; numbering on mature BMP-7
B2: BMP-7 variant R129K (ligand)
chain: B1 chain with D129K
notes: as for B1
B3: BMP-7 variant R129N (ligand)
chain: B1 chain with D129N
notes: as for B1
B4: BMP-7 variant R129S (ligand)
chain: B1 chain with D129S
notes: as for B1
B5: BMP-7 variant R134K (ligand)
chain: B1 chain with D129R, R134K
notes: as for B1
B6: BMP-7 variant S77E (ligand)
chain: B1 chain with S77E, D129R
notes: as for B1
B7: BMP-7 variant S77P (ligand)
chain: B1 chain with S77P, D129R
notes: as for B1
B8: BMP-7 variant S77T (ligand)
chain: B1 chain with S77T, D129R
notes: as for B1
B9: BMP-7 variant V26E (ligand)
chain: B1 chain with V26E, D129R
notes: as for B1
B10: BMP-7 variant V26G (ligand)
chain: B1 chain with V26G, D129R
notes: as for B1
B11: BMP-7 variant V26N (ligand)
chain: B1 chain with V26N, D129R
notes: as for B1
B12: BMP-7 variant V123G (ligand)
chain: B1 chain with V123G, D129R
notes: as for B1
B13: BMP-7 variant W52A (ligand)
chain: B1 chain with W52A, D129R
notes: as for B1
B14: BMP-7 variant W55N (ligand)
chain: B1 chain with W55N, D129R
notes: as for B1
B15: BMP-7 variant W55R (ligand)
chain: B1 chain with W55R, D129R
notes: as for B1
B16: BMP-7 variant Y44N (ligand)
chain: B1 chain with Y44N, D129R
notes: as for B1
B17: BMP-7 variant Y44T (ligand)
chain: B1 chain with Y44T, D129R
notes: as for B1
B18: BMP-7 variant Y78D (ligand)
chain: B1 chain with Y78D, D129R
notes: as for B1
B19: BMP-7 variant Y78H (ligand)
chain: B1 chain with Y78H, D129R
notes: as for B1
B20: BMP-7 variant Y78P (ligand)
chain: B1 chain with Y78P, D129R
notes: as for B1
B21: BMP-7 variant Y78R (ligand)
chain: B1 chain with Y78R, D129R
notes: as for B1
B22: BMP-7 variant Y78S (ligand)
chain: B1 chain with Y78S, D129R
notes: as for B1
B23: BMP-7 variant Y78T (ligand)
chain: B1 chain with Y78T, D129R
notes: as for B1
B24: BMP-7 variant Y128K (ligand)
chain: B1 chain with Y128K, D129R
notes: as for B1
B25: BMP-7 variant E60S (ligand)
chain: B1 chain with E60S, D129R
B26: BMP-7 variant K39D (ligand)
chain: B1 chain with K39D, D129R
B27: BMP-7 variant K39T (ligand)
chain: B1 chain with K39T, D129R
B28: BMP-7 variant K126G (ligand)
chain: B1 chain with K126G, D129R

target: T1, BMPRIb receptor-Fc fusion; assay: ELISA-like plate assay, captured BMP-7 from conditioned media, receptor-Fc detection

In order of falling “BMPRIb binding (relative to wild type = 1.0)” value:
1. B22  2.75 relative to wild type
2. B23  2.4 relative to wild type
3. B21  2.39 relative to wild type
4. B15  2.17 relative to wild type
5. B18  2.01 relative to wild type
6. B16  1.81 relative to wild type
7. B10  1.66 relative to wild type
8. B24  1.57 relative to wild type
9. B11  1.43 relative to wild type
10. B9  1.38 relative to wild type
11. B19  1.34 relative to wild type
12. B17  1.33 relative to wild type
13. B1  1.16 relative to wild type
14. B5  1.11 relative to wild type
15. B3  1.03 relative to wild type
16. B6  0.94 relative to wild type
17. B7  0.79 relative to wild type
18. B8  0.79 relative to wild type
19. B2  0.77 relative to wild type
20. B20  0.69 relative to wild type
21. B4  0.37 relative to wild type
22. B13  0.33 relative to wild type
23. B12  0.17 relative to wild type
24. B14  0 relative to wild type

target: T5, BMPRIa receptor-Fc fusion (UniProt P36894 24-152, limits assumed); assay: as above
T5 construct: also called ALK-3
T5 sequence (P36894 24-152 limits assumed): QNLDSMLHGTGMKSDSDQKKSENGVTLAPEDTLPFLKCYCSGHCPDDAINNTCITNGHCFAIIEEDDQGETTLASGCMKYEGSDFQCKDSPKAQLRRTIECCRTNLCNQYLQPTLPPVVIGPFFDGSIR

In order of rising “BMPRIa binding (relative to wild type = 1.0)” value:
1. B4  0.32 relative to wild type
2. B14  0.35 relative to wild type
3. B7  0.58 relative to wild type
4. B12  0.67 relative to wild type
5. B2  0.69 relative to wild type
6. B20  0.75 relative to wild type
7. B8  0.77 relative to wild type
8. B6  0.81 relative to wild type
9. B23  0.87 relative to wild type
10. B3  0.89 relative to wild type
11. B13  0.92 relative to wild type
12. B1  0.93 relative to wild type
13. B9  1.02 relative to wild type
14. B5  1.05 relative to wild type
15. B18  1.05 relative to wild type
16. B10  1.08 relative to wild type
17. B17  1.09 relative to wild type
18. B11  1.14 relative to wild type
19. B22  1.29 relative to wild type
20. B19  1.36 relative to wild type
21. B21  1.36 relative to wild type
22. B24  1.4 relative to wild type
23. B15  1.75 relative to wild type
24. B16  2.05 relative to wild type

target: T6, ActRIIa receptor-Fc fusion (UniProt P27037 20-134, limits assumed); assay: as above
T6 construct: BMP receptor-Fc fusion used at 5 ug/mL
T6 sequence (P27037 20-134 limits assumed): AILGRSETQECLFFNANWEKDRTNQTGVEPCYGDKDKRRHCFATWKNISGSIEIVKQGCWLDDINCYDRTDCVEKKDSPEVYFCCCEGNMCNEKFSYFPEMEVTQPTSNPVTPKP

In order of rising “ActRIIa binding (relative to wild type = 1.0)” value:
1. B17  0.36 relative to wild type
2. B14  0.41 relative to wild type
3. B16  0.45 relative to wild type
4. B12  0.53 relative to wild type
5. B4  0.62 relative to wild type
6. B20  0.92 relative to wild type
7. B7  1 relative to wild type
8. B11  1 relative to wild type
9. B9  1.02 relative to wild type
10. B10  1.07 relative to wild type
11. B19  1.07 relative to wild type
12. B3  1.1 relative to wild type
13. B24  1.11 relative to wild type
14. B2  1.12 relative to wild type
15. B1  1.13 relative to wild type
16. B8  1.15 relative to wild type
17. B6  1.17 relative to wild type
18. B5  1.18 relative to wild type
19. B15  1.2 relative to wild type
20. B22  1.58 relative to wild type
21. B23  1.63 relative to wild type
22. B13  1.69 relative to wild type
23. B18  1.93 relative to wild type
24. B21  2.26 relative to wild type

target: T2, BMPRII receptor-Fc fusion; assay: as above

In order of falling “BMPRII binding (relative to wild type = 1.0)” value:
1. B21  3.13 relative to wild type
2. B18  2.72 relative to wild type
3. B23  2.66 relative to wild type
4. B1  1.86 relative to wild type
5. B24  1.78 relative to wild type
6. B22  1.77 relative to wild type
7. B15  1.52 relative to wild type
8. B19  1.47 relative to wild type
9. B16  1.46 relative to wild type
10. B3  1.4 relative to wild type
11. B13  1.25 relative to wild type
12. B10  1 relative to wild type
13. B6  0.98 relative to wild type
14. B8  0.97 relative to wild type
15. B11  0.97 relative to wild type
16. B5  0.91 relative to wild type
17. B7  0.91 relative to wild type
18. B20  0.85 relative to wild type
19. B14  0.82 relative to wild type
20. B2  0.78 relative to wild type
21. B9  0.73 relative to wild type
22. B4  0.26 relative to wild type
23. B17  0.25 relative to wild type
24. B12  0.22 relative to wild type

target: T3, BMPRIb receptor-Fc fusion; assay: ELISA-like, fixed volume of conditioned media, receptor-Fc

In order of rising “BMPRIb binding relative to wild type” value:
1. B28  0.35 relative to wt = 1.0
2. B26  0.82 relative to wt = 1.0
3. B27  0.86 relative to wt = 1.0
4. B25  0.87 relative to wt = 1.0

target: T7, BMPRIa receptor-Fc fusion (UniProt P36894 24-152, limits assumed); assay: as above
T7 construct: BMP receptor-Fc fusion; also called ALK-3
T7 sequence (P36894 24-152 limits assumed): as the sequence (P36894 24-152 limits assumed) above

In order of rising “BMPRIa binding relative to wild type” value:
1. B28  0.3 relative to wt = 1.0
2. B26  0.67 relative to wt = 1.0
3. B25  0.74 relative to wt = 1.0
4. B27  0.74 relative to wt = 1.0

target: T4, BMPRII receptor-Fc fusion; assay: as above

In order of rising “BMPRII binding relative to wild type” value:
1. B28  0.12 relative to wt = 1.0
2. B26  0.72 relative to wt = 1.0
3. B27  0.75 relative to wt = 1.0
4. B25  0.88 relative to wt = 1.0

target: T8, ActRIIa receptor-Fc fusion (UniProt P27037 20-134, limits assumed); assay: as above
T8 construct: BMP receptor-Fc fusion, detected with anti-human IgG-HRP
T8 sequence (P27037 20-134 limits assumed): as the sequence (P27037 20-134 limits assumed) above

In order of rising “ActRIIa binding relative to wild type” value:
1. B28  0.53 relative to wt = 1.0
2. B26  0.88 relative to wt = 1.0
3. B27  0.98 relative to wt = 1.0
4. B25  1.02 relative to wt = 1.0
